Changes are numbered by the printed parent chain. In names and notes the source's numbering stands.
What was measured:
[1] = target: KEAP1 (wild-type full-length), His-tagged (human) (UniProt Q14145); assay: AlphaScreen; FLAG-NRF2 wt isoform 1 2.4 nM, His-KEAP1 150 nM; Rep 2; positive control for Q75R
[2] = target: KEAP1 (wild-type full-length), His-tagged (human) (UniProt Q14145); assay: AlphaScreen; FLAG-NRF2 wt isoform 1 38.4 nM, His-KEAP1 150 nM; Rep 3; positive control for I86V
[3] = target: KEAP1 (wild-type full-length), His-tagged (human) (UniProt Q14145); assay: AlphaScreen; NRF2 wt isoform 1 9.6 nM, KEAP1 150 nM; set as the 100 % reference for I86V
[4] = target: KEAP1 (wild-type full-length), His-tagged (human) (UniProt Q14145); assay: AlphaScreen; 38.4 nM FLAG-NRF2, 150 nM His-KEAP1; Rep 2; control for I28V
[5] = target: KEAP1 (wild-type full-length), His-tagged (human) (UniProt Q14145); assay: AlphaScreen; 614.4 nM FLAG-NRF2, 150 nM His-KEAP1; Rep 1; control for I28V
[6] = target: KEAP1 (wild-type full-length), His-tagged (human) (UniProt Q14145); assay: AlphaScreen, all variants on one plate; average of three conditions, KEAP1 150 nM; the reference itself
[7] = target: KEAP1 (wild-type full-length), His-tagged (human) (UniProt Q14145); assay: AlphaScreen; NRF2 wt isoform 1 38.4 nM, KEAP1 150 nM; set as the 100 % reference for Q75R
[8] = target: KEAP1 (wild-type full-length), His-tagged (human) (UniProt Q14145); assay: AlphaScreen; 153.6 nM FLAG-NRF2, 150 nM His-KEAP1; Rep 2; control for I28V
[9] = target: KEAP1 (wild-type full-length), His-tagged (human) (UniProt Q14145); assay: AlphaScreen; 153.6 nM FLAG-NRF2, 150 nM His-KEAP1; signal against NRF2 only; control for I28V
[10] = target: KEAP1 (wild-type full-length), His-tagged (human) (UniProt Q14145); assay: AlphaScreen; 76.8 nM FLAG-NRF2, 150 nM His-KEAP1; Rep 2; control for I28V
[11] = target: KEAP1 (wild-type full-length), His-tagged (human) (UniProt Q14145); assay: AlphaScreen; FLAG-NRF2 wt isoform 1 614.4 nM, His-KEAP1 150 nM; Rep 2; positive control for Q75R
[12] = target: KEAP1 (wild-type full-length), His-tagged (human) (UniProt Q14145); assay: AlphaScreen; NRF2 wt isoform 1 38.4 nM, KEAP1 150 nM; signal against NRF2-only control; control for Q75R
[13] = target: KEAP1 (wild-type full-length), His-tagged (human) (UniProt Q14145); assay: AlphaScreen; 614.4 nM FLAG-NRF2, 150 nM His-KEAP1; Rep 2; control for I28V
[14] = target: KEAP1 (wild-type full-length), His-tagged (human) (UniProt Q14145); assay: AlphaScreen; 9.6 nM FLAG-NRF2, 150 nM His-KEAP1; Rep 2; control for I28V
[15] = target: KEAP1 (wild-type full-length), His-tagged (human) (UniProt Q14145); assay: AlphaScreen; 2.4 nM FLAG-NRF2, 150 nM His-KEAP1; signal against NRF2 only; control for I86V
[16] = target: KEAP1 (wild-type full-length), His-tagged (human) (UniProt Q14145); assay: AlphaScreen; NRF2 Q75R 153.6 nM, KEAP1 150 nM; signal against NRF2-only control
[17] = target: KEAP1 (wild-type full-length), His-tagged (human) (UniProt Q14145); assay: AlphaScreen; NRF2 Q75R 614.4 nM, KEAP1 150 nM; signal against NRF2-only control
[18] = target: KEAP1 (wild-type full-length), His-tagged (human) (UniProt Q14145); assay: AlphaScreen; FLAG-NRF2 Q75R 38.4 nM, His-KEAP1 150 nM; Rep 2
[19] = target: KEAP1 (wild-type full-length), His-tagged (human) (UniProt Q14145); assay: AlphaScreen; FLAG-NRF2 Q75R 9.6 nM, His-KEAP1 150 nM; Rep 1
[20] = target: KEAP1 (wild-type full-length), His-tagged (human) (UniProt Q14145); assay: AlphaScreen; FLAG-NRF2 I86V 614.4 nM, His-KEAP1 150 nM; Rep 1
[21] = target: KEAP1 (wild-type full-length), His-tagged (human) (UniProt Q14145); assay: AlphaScreen; average of three conditions; against wild-type NRF2 isoform 1
[22] = target: KEAP1 (wild-type full-length), His-tagged (human) (UniProt Q14145); assay: AlphaScreen; 38.4 nM FLAG-NRF2, 150 nM His-KEAP1; Repeat 2 (same value as in Table 27)
[23] = target: KEAP1 (wild-type full-length), His-tagged (human) (UniProt Q14145); assay: AlphaScreen; 1228.8 nM FLAG-NRF2, 150 nM His-KEAP1; signal against NRF2 only
[24] = target: KEAP1 (wild-type full-length), His-tagged (human) (UniProt Q14145); assay: AlphaScreen; 19.2 nM FLAG-NRF2, 150 nM His-KEAP1; against wild-type NRF2 isoform 1 = 100%
[25] = target: KEAP1 (wild-type full-length), His-tagged (human) (UniProt Q14145); assay: AlphaScreen; 2.4 nM FLAG-NRF2, 150 nM His-KEAP1; Rep 1
[26] = target: KEAP1 (wild-type full-length), His-tagged (human) (UniProt Q14145); assay: AlphaScreen; 19.2 nM FLAG-NRF2, 150 nM His-KEAP1; Repeat 1 (same value as in Table 27)
[27] = target: KEAP1 (wild-type full-length), His-tagged (human) (UniProt Q14145); assay: AlphaScreen; 307.2 nM FLAG-NRF2, 150 nM His-KEAP1; Rep 1

Chain of KEAP1 (wild-type full-length), His-tagged (human) (Q14145 2-624 limits assumed): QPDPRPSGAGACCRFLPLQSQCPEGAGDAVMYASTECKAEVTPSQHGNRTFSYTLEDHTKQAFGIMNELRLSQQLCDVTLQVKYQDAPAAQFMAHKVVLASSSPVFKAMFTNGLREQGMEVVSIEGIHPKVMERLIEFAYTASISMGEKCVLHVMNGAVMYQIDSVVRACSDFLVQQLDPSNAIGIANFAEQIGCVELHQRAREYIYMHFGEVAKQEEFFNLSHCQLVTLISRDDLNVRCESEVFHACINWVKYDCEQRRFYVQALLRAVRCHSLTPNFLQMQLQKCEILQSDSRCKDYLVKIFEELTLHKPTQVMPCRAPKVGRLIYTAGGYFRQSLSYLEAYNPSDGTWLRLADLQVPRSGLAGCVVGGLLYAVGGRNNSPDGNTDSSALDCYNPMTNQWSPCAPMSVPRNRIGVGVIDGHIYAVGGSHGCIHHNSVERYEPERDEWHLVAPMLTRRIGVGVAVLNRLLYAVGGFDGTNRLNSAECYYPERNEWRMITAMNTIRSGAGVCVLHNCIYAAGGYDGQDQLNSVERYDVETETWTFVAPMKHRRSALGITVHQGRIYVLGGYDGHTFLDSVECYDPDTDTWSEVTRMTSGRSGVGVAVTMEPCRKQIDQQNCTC

B1: NRF2 isoform 1 (wild-type full-length), FLAG-tagged (protein)
chain: MMDLELPPPGLPSQQDMDLIDILWRQDIDLGVSREVFDFSQRRKEYELEKQKKLEKERQEQLQKEQEKAFFAQLQLDEETGEFLPIQPAQHIQSETSGSANYSQVAHIPKSDALYFDDCMQLLAQTFPFVDDNEVSSATFQSLVPDIPGHIESPVFIATNQAQSPETSVAQVAPVDLDGMQQDIEQVWEELLSIPELQCLNIENDKLVETTMVPSPEAKLTEVDNYHFYSSIPSMEKEVGNCSPHFLNAFEDSFSSILSTEDPNQLTVNSLNSDATVNTDFGDEFYSAFIAEPSISNSMPSPATLSHSLSELLNGPIDVSDLSLCKAFNQNHPESTAEFNDSDSGISLNTSPSVASPEHSVESSSYGDTLLGLSDSEVEELDSAPGSVKQNGPKTPVHSSGDMVQPLSPSQGQSTHVHDAQCENTPEKELPVSPGHRKTPFTKDKHSSRLEAHLTRDELRAKALHIPFPVEKIINLPVVDFNEMMSKEQFNEAQLALIRDIRRRGKNKVAAQNCRKRKLENIVELEQDLDHLKDEKEKLLKEKGENDKSLHLLKKQLSTLYLEVFSMLRDEDGKPYSPSEYSLQQTRDGNVFLVPKSKKPDVKKN
Which A-counts (NRF2 plus KEAP1) [1] does the source give for B1 here?
The A-counts (NRF2 plus KEAP1) was 429 A-counts.

What about the A-counts (NRF2 plus KEAP1) [2] of the same binder?
The A-counts (NRF2 plus KEAP1) was 3130 A-counts.

What about the Binding Percentage [3] of the same binder?
The Binding Percentage was 100%.

And the A-counts [4]?
The A-counts was 1900 A-counts.

What about the A-counts [5] of the same binder?
Its A-counts is 1780 A-counts.

And the % Disruption in Binding (Reported Values) [6]?
Its % Disruption in Binding (Reported Values) is 0%.

And the Binding Percentage [7]?
The Binding Percentage was 100%.

What about the A-counts [8] of the same binder?
The A-counts was 1880 A-counts.

What about the S/N [9] of the same binder?
Its S/N is 1.9.

And the A-counts [10]?
Its A-counts is 1970 A-counts.

What about the A-counts (NRF2 plus KEAP1) [11] of the same binder?
Its A-counts (NRF2 plus KEAP1) is 1710 A-counts.

What about the S/N [12] of the same binder?
Its S/N is 2.8.

What about the A-counts [13] of the same binder?
The A-counts was 1810 A-counts.

And the A-counts [14]?
Its A-counts is 1640 A-counts.

And the S/N [15]?
Its S/N is 1.7.

B2: NRF2 isoform 1 (Q75R full-length), FLAG-tagged (protein)
chain: B1 chain with Q75R
For B2, which S/N [16] is on record?
Its S/N is 1.5.

What about the S/N [17] of the same binder?
Its S/N is 0.8.

What about the A-counts (NRF2 plus KEAP1) [18] of the same binder?
Its A-counts (NRF2 plus KEAP1) is 1280 A-counts.

What about the A-counts (NRF2 plus KEAP1) [19] of the same binder?
Its A-counts (NRF2 plus KEAP1) is 1180 A-counts.

B3: NRF2 isoform 1 (I86V full-length), FLAG-tagged (protein)
chain: B1 chain with I86V
For B3, which A-counts (NRF2 plus KEAP1) [20] is on record?
Its A-counts (NRF2 plus KEAP1) is 2000 A-counts.

B4: NRF2 isoform 1 (I28V full-length), FLAG-tagged (protein)
chain: B1 chain with I28V
How did the Reported Value (reduction in binding) [21] turn out when B4 was run?
Its Reported Value (reduction in binding) is 30.2%.

And the A-counts [22]?
The A-counts was 1680 A-counts.

What about the S/N [23] of the same binder?
The S/N was 0.9.

And the Binding Percentage (%) [24]?
The Binding Percentage (%) was 68.3%.

And the A-counts [25]?
The A-counts was 697 A-counts.

And the A-counts [26]?
Its A-counts is 1730 A-counts.

What about the A-counts [27] of the same binder?
The A-counts was 1310 A-counts.

Source: US20250352667A1
